From article PMC7939381 (2020)
Values joined by “and” are separate entries in the source; they are usually repeats but may differ in a detail not shown here. Identical values can stand only once. Like-named read-outs stand apart in the source and are kept apart here. Blank lines part the entries; values can stand above or below the binder they belong to. Primed or numbered codes have the meaning given here. Where no end group is shown, it is not given here. [ ]: non-standard residue; d: D form. The star is where a group is joined. PEG2′ = short PEG linker placed between the N-terminal FITC label and the peptide; FITC = O=C1OC2(c3ccc(O)cc3Oc3cc(O)ccc32)c2ccc(NC(=S)*)cc21; pT = C[C@@H](OP(=O)(O)O)[C@H](N)C(=O)O; pS = N[C@@H](COP(=O)(O)O)C(=O)O

B3: 14-3-3β/α, full length, N-terminally His6-tagged (natural protein)
chain: MTMDKSELVQKAKLAEQAERYDDMAAAMKAVTEQGHELSNEERNLLSVAYKNVVGARRSSWRVISSIEQKTERNEKKQQMGKEYREKIEAELQDICNDVLELLDKYLIPNATQPESKVFYLKMKGDYFRYLSEVASGDNKQTTVSNSQQAYQEAFEISKKEMQPTHPIRLGLALNFSVFYYEILNSPEKACSLAKTAFDEAIAELDTLNEESYKDSTLIMQLLRDNLTLWTSENQGDEGDAGEGEN
B4: 14-3-3η, full length, N-terminally His6-tagged (natural protein)
chain: MGDREQLLQRARLAEQAERYDDMASAMKAVTELNEPLSNEDRNLLSVAYKNVVGARRSSWRVISSIEQKTMADGNEKKLEKVKAYREKIEKELETVCNDVLSLLDKFLIKNCNDFQYESKVFYLKMKGDYYRYLAEVASGEKKNSVVEASEAAYKEAFEISKEQMQPTHPIRLGLALNFSVFYYEIQNAPEQACLLAKQAFDDAIAELDTLNEDSYKDSTLIMQLLRDNLTLWTSDQQDEEAGEGN
B5: 14-3-3σ, full length, N-terminally His6-tagged (natural protein)
chain: MERASLIQKAKLAEQAERYEDMAAFMKGAVEKGEELSCEERNLLSVAYKNVVGGQRAAWRVLSSIEQKSNEEGSEEKGPEVREYREKVETELQGVCDTVLGLLDSHLIKEAGDAESRVFYLKMKGDYYRYLAEVATGDDKKRIIDSARSAYQEAMDISKKEMPPTNPIRLGLALNFSVFHYEIANSPEEAISLAKTTFDEAMADLHTLSEDSYKDSTLIMQLLRDNLTLWTADNAGEEGGEAPQEPQS

Columns and labels:
[1] = target: B4; experiment: ITC; replicate A
[2] = target: B4; experiment: ITC
[3] = target: B4; experiment: ITC; replicate B
[4] = target: B3; experiment: FP
[5] = target: B5; experiment: FP
[6] = target: B4; experiment: FP
[7] = target: B4; experiment: FP
[8] = target: B3; experiment: FP
[9] = target: peptide 13; experiment: FP
[10] = target: peptide 13; experiment: FP; remark: listed apart in the source
[11] = target: B3; experiment: FP
[12] = target: T1, 14-3-3ε, full length, N-terminally His6-tagged (human, UniProt P62258 1-255); experiment: FP
T1 chain: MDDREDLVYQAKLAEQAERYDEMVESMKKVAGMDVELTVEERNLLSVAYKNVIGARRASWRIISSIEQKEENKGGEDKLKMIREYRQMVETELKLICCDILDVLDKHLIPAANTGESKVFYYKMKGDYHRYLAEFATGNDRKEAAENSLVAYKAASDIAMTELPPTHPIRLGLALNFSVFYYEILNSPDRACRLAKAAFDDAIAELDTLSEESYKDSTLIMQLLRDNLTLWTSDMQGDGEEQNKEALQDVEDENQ

[13] = target: B5; experiment: FP
[14] = target: T2, 14-3-3ζ, full length, N-terminally His6-tagged (human, UniProt P63104 1-245); experiment: FP
T2 chain: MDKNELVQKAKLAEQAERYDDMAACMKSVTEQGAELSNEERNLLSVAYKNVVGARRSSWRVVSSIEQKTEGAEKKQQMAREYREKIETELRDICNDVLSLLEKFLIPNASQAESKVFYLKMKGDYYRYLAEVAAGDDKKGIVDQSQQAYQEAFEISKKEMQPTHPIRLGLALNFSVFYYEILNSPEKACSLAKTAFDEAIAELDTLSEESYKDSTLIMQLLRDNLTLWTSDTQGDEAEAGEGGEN

[15] = target: T3, 14-3-3θ, full length, N-terminally His6-tagged (human, UniProt P27348 1-245); experiment: FP
T3 chain: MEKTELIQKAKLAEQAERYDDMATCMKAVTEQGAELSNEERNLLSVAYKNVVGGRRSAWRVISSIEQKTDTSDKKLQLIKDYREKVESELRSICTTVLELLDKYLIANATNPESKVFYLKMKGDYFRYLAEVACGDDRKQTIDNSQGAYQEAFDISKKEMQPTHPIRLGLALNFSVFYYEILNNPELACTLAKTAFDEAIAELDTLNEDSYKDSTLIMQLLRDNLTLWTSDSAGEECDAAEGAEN

[16] = target: B4; experiment: FP
[17] = target: T4, 14-3-3γ, full length, N-terminally His6-tagged (human, UniProt P61981 1-247); experiment: FP
T4 chain: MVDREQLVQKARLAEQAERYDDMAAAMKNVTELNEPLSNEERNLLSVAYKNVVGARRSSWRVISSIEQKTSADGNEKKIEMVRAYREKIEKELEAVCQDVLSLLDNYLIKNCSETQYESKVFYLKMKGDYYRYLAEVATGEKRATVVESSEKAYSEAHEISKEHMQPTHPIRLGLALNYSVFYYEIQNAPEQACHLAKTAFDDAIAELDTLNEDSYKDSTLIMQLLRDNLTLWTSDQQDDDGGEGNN

Kd [1]: 2.48 µM
Ka [2]: 403000 M⁻¹ and 488000 M⁻¹ and 497000 M⁻¹
Kd [3]: 2.01 µM
Binder: NKNAN[pS]SPV [peptide 1, APN 38–46 pSer43, as used in ITC]

Kd [4]: 60 µM
Kd [5]: > 167 µM
B1: fluorescently labeled peptide 7, APN 36–73 pSer43 (peptide)
peptide: EKNKNAN[pS]SPVASTTPSASATTNPASATTLDQSKAWNR
modifications: not fully specified (N-terminus); also: FITC via PEG2 linker, site not given here

Kd [6]: 15 µM
Kd [4]: 23 µM
Kd [5]: > 167 µM
Kd [7]: 15 µM
Binder: {FITC-PEG2′}-EKNKNAN[pS]SPVASTTPSASATTNPASATTLDQSKAWNR (also: second phosphorylated Ser/Thr, site not given here) [fluorescently labeled peptide 9, APN 36–73, bis-phosphorylated]

Kd [4]: 0.11 µM
Kd [5]: 1.8 µM
B2: fluorescently labeled peptide 11, APN 36–73 pSer43 pThr63 (peptide)
peptide: EKNKNAN[pS]SPVASTTPSASATTNPASA[pT]TLDQSKAWNR
modifications: not fully specified (N-terminus); also: FITC via PEG2 linker, site not given here

Kd [6]: 0.18 µM
Kd [4]: 0.45 µM
Kd [5]: 4.1 µM
Kd [7]: 0.18 µM
Binder: {FITC-PEG2′}-EKNKNAN[pS]SPVASTTPSASATTNPASATTLDQSKAWNR (also: second phosphorylation within Ser61–Thr64, site not given here) [fluorescently labeled peptide 12, APN 36–73, bis-phosphorylated]

Kd [6]: 18 µM
Kd [4]: 32 µM
Kd [5]: > 167 µM
Kd [7]: 18 µM
Binder: {FITC-PEG2′}-EKNKNAN[pS]SPVASTTPSASATTNPASATTLDQSKAWNR (also: second phosphorylated Ser/Thr, site not given here) [fluorescently labeled peptide 8, APN 36–73, bis-phosphorylated]

Kd [8]: 45 µM
Binder: NPASA[pT]TLD [peptide 15, monophosphorylated APN 9-mer pThr63 (site 2)]

Binder: B3
Kd [9]: > 167 µM

Kd [6]: 0.42 µM
Kd [4]: 0.88 µM
Kd [5]: 6.6 µM
Kd [7]: 0.42 µM
Binder: {FITC-PEG2′}-EKNKNAN[pS]SPVASTTPSASATTNPASATTLDQSKAWNR (also: second phosphorylation within Ser61–Thr64, site not given here) [fluorescently labeled peptide 10, APN 36–73, bis-phosphorylated]

Binder: B4
Kd [9]: > 83 µM
Kd [10]: > 83 µM

Kd [4]: 0.71 µM
Kd [5]: 3.5 µM
Kd [11]: 0.7 µM
Kd [12]: 1.1 µM
Kd [13]: 3.9 µM
Kd [14]: 1.2 µM
Kd [15]: 2 µM
Kd [16]: 0.21 µM
Kd [17]: 1.16 µM
Binder: {FITC-PEG2′}-NKNAN[pS]SPV [FITC-labeled peptide 1, APN 38–46 pSer43]

Binder: B5
Kd [9]: > 167 µM

Kd [8]: > 167 µM
Kd [6]: 70 µM
Binder: TTNPASATT (also: one phosphorylated Ser/Thr within Ser61–Thr64) [peptide 14, monophosphorylated APN 9-mer (noncanonical site of peptide 10)]

Kd [8]: > 333 µM
Kd [6]: > 167 µM
Binder: PASATTLDQ (also: one phosphorylated Ser/Thr within Ser61–Thr64) [peptide 16, monophosphorylated APN 9-mer (noncanonical site of peptide 12)]
